Assay results: article PMC8423902 (Cell Reports, 2021)

Molecular target: trimeric SARS-CoV-2 ectodomain (S 6P trimer, residues 16-1206) (SARS-CoV-2, early isolate GenBank …, UniProt P0DTC2, stabilised)
Experiment: cryo-EM structure

B1: C118 Fab (Fab, V domains shown)
VH: QVQLVESGGGVVQPGRSLRLSCAASGFTFSNYAMHWVRQAPGKGLEWVAVISYDGSNKYYADSVKGRFTISRDNSKNTLYLQMNSLRAEDTAIYYCASGYTGYDYFVRGDYYGLDVWGQGTTVTVSS
VL: QPVLTQSPSASASLGASVKLTCTLSSGHSSYAIAWHQQQPEKGPRYLMKLNTDGSHSKGDGIPDRFSGSSSGAERYLTISSLQSEDEADYYCQTWGTGILVFGGGTKLTVL
B1: binds.
